The values below come from patent US20260098090A1.

The target in this assay is T1, IL-2Rbg on mouse splenocytes (NK cells, CD8+ T cells, Treg cells) (mouse) (UniProt P16297).
T1 sequence (looked up) 1: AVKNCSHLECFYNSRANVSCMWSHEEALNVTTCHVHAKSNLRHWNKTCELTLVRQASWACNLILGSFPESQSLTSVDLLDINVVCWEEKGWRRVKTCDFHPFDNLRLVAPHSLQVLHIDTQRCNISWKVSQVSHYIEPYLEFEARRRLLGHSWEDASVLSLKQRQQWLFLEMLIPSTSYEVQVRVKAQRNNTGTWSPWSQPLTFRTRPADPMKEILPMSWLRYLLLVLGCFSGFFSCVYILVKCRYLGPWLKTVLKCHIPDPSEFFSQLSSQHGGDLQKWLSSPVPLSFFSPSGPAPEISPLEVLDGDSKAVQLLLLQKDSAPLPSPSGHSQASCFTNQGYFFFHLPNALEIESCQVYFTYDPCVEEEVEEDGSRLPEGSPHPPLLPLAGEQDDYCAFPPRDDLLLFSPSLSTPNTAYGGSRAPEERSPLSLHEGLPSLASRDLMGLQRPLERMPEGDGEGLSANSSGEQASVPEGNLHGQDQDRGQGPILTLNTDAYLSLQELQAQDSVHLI
T1 sequence (looked up) 2: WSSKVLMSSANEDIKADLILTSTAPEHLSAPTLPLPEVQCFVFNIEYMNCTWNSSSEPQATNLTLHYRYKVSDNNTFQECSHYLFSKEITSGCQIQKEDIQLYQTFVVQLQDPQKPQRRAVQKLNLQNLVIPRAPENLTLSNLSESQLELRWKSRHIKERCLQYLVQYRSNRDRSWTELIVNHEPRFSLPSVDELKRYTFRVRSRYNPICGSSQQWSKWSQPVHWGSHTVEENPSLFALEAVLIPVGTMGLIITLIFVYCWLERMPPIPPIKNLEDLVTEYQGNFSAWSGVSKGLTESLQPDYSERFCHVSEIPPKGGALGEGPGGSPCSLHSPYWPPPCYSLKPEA
The assay can be described thus: cell-based or functional assay.

B1: CTRL-mIL2v2 (protein, part only; not given: control antibody chains and linker, not shown: small tags and cut ends)
heavy, part: APTSSSTSSSTAEAQQQQQQQQQQQQHLEQLLMDLQELLSRMENYRNLKLPEMLTAKFALPKQATELKDLQCLEDELGPLRHVLDLTQSKSFQLEDAENFISNIRVTVVKLKGSDNTFECQFDDESATVVDFLRRWIAFAQSIISTSPQ
The molecule B1 gave a pSTAT5 staining of murine splenocytes, EC50 on CD8+ T cells of 26 nM; a pSTAT5 staining of murine splenocytes, EC50 on NK cells of 8.6 nM; a pSTAT5 staining of murine splenocytes, EC50 on Treg cells of 42.5 nM.
